Experimental data as given in patent US20080090770A1, “Modulation of Muc1 Mediated Signal Transduction” (priority 2003, published 2008).

Target: GST-RIM2 (KIAA0751) PDZ domain 1 (human)
Test: modified ELISA, plated GST-RIM2 PDZ domain, biotinylated peptide 0.001-10 µM, curve fit; Relative EC50

Which EC50 does the source give for YGRKKRRQRRRARGRRETWV (modifications not checked) [… (SEQ ID NO: 170)] here?
The EC50 was less than 10 nM.
